What was measured:
allogeneic DTH responses = assay: Delayed type hypersensitivity (DTH) assessment, footpad swelling after alloimmunization with HKB cells; type: in vivo, mice
Protocol: A. C57BL/6 (H-2^b) mice were vaccinated with irradiated allogeneic HKB (H-2^a) cells suspended in PBS at 10^7 trypan blue-excluding cells/ml. Cells were irradiated with 6000 rads from a ^137Cs source, and mice were vaccinated with 10^6 cells s.c. (day 0). Mice were given rmIL-12 (Genetics Institute, Andover, Mass.) by intraperitoneal injection (ip) with 500 ng/day on days 0-4 and 7-11 (10 injections). Control mice received phosphate buffered saline (PBS) injections. The vaccinated mice received 1 mg of neutralizing anti-IFNγ (XMG6) and/or anti-TNFα (XT22) monoclonal antibodies (mAbs) on days −1, 3 and 7. Mice were subsequently assayed for delayed type hypersensitivity (DTH) and for mitogen and alloantigen stimulation of splenocytes as described below.
The DTH assessment was performed as follows: For assessment of allogeneic DTH responses, mice were injected with 50 μl PBS containing 10^6 irradiated SCK cells in the right footpad and with 50 μl PBS in the left footpad. Footpad thickness measurements were taken just before injection and 24 hours later using a Starrett pocket gauge (Athol, Mass.). Data are presented as the difference in footpad swelling induced by SCK cells and by PBS.
C57BL/6 mice genetically deficient for IFNγ (IFNγ^−/−) and wild-type C57BL/6 mice were vaccinated with 10^6 irradiated HKB cells and given 500 ng rmIL-12 or phosphate buffered saline (PBS) on days 0-4 and 7-11 or left unvaccinated. They were challenged with 10^6 irradiated SCK cells in the right foot, with PBS control injection in the left foot on day 12. The DTH responses were measured as described above in Part A.
C. To examine the role of TNFα, SV129×C57BL/6 mice deficient for both p55 and p75 TNF receptors (TNFR^−/− mice) and control mice were vaccinated with 10^6 irradiated HKB cells and given 500 ng IL-12 or PBS on days 0-4 and 7-11. DTH assessment was performed on day 12, as described above in Part A.
Footpad injections for DTH assessment were performed on day 12 as described above in the DTH assay. Swelling 24 hours later is presented as the mean (+S.E.) from 3 mice in each treatment group in FIG. 4A.

SCK cells = conditions: A/J mice with established SCK immunity; given just prior to tumor cell rechallenge; cited from earlier work

B1: rmIL-12: recombinant murine Interleukin-12, heterodimeric cytokine, from Genetics Institute (protein, UniProt P43431 23-215; P43432 23-335, looked up)
Interleukin-12 subunit alpha: RVIPVSGPARCLSQSRNLLKTTDDMVKTAREKLKHYSCTAEDIDHEDITRDQTSTLKTCLPLELHKNESCLATRETSSTTRGSCLPPQKTSLMMTLCLGSIYEDLKMYQTEFQAINAALQNHNHQQIILDKGMLVAIDELMQSLNHNGETLRQKPPVGEADPYRVKMKLCILLHAFSTRVVTINRVMGYLSSA
Interleukin-12 subunit beta: MWELEKDVYVVEVDWTPDAPGETVNLTCDTPEEDDITWTSDQRHGVIGSGKTLTITVKEFLDAGQYTCHKGGETLSHSHLLLHKKENGIWSTEILKNFKNKTFLKCEAPNYSGRFTCSWLVQRNMDLKFNIKSSSSSPDSRAVTCGMASLSAEKVTLDQRDYEKYSVSCQEDVTCPTAEETLPIELALEARQQNKYENYSTSFFIRDIIKPDPPKNLQMKPLKNSQVEVSWEYPDSWSTPHSYFSLKFFVRIQRKKEKMKETEEGCNQKGAFLVEKTSTEVQCKGGNVCVQAQDRYYNSSCSKWACVPCRVRS
In the case of B1, the DTH responses (allogeneic DTH responses; IFNγR1−/− C57BL/6×SV129 mice and controls vaccinated with HKB cells, data not shown) is reported as “suppressed DTH responses in control but not IFNγR1^−/− mice”, the DTH responses (allogeneic DTH responses; IFNγ−/− C57BL/6 mice vaccinated with HKB cells, rmIL-12 500 ng days 0-4 and 7-11) is reported as “had no suppressive effect” and the DTH responses (allogeneic DTH responses; TNFR−/− (p55 and p75) SV129×C57BL/6 mice vaccinated with HKB cells, 500 ng days 0-4 and 7-11) is reported as “depressed DTH responses like wild-type”. The DTH responses (allogeneic DTH responses; iNOS−/− C57BL/6 mice vaccinated with HKB cells, course of rmIL-12) was “at least as great as those of PBS-treated iNOS^−/− and wild-type mice”, the DTH responses (allogeneic DTH responses; wild-type C57BL/6 mice vaccinated with irradiated HKB cells, rmIL-12 500 ng/day ip days 0-4 and 7-11, challenge day 12) was “suppressed DTH responses to background levels” and the “Effect on tumor protection” value (SCK cells) was “impairs tumor protection”.

Reference: patent US6375944B1, “Methods and compositions for enhancing the immunostimulatory effect of interleukin-12” (The Wistar Institute of Anatomy and Biology, priority 1998, dated 2002)
